These results are taken from the Human Domainome abundance scans (Beltran et al. 2025).

± gives the uncertainty stated by the source.

To fix the notation:
B1: Transcriptional regulator ERG, residues 117 to 197; numbered along this chain, P11308 (parent)
chain: NMTTNERRVIVPADPTLWSTDHVRQWLEWAVKEYGLPDVNILLFQNIDGKELCKMTKDDFQRLTPSYNADILLSHLHYLRE

The variants in this series derive from B1. As to the kind of experiment: abundance fitness (aPCA) (normalised: wild type 0, dead -1); higher = more abundant; growth selection in yeast, the domain comes from the species named. Particulars: Homo sapiens.
As to NMTTNERRVIVPADPTLWSTDHVRQWLEWAVKEYGLPDVCILLFQNIDGKELCKMTKDDFQRLTPSYNADILLSHLHYLRE [N40C], the abundance fitness was -0.172 ± 0.071.
Regarding NMTTNERRVIVPADPTLWSTDHVRQWLEWAVKEYGLPDVDILLFQNIDGKELCKMTKDDFQRLTPSYNADILLSHLHYLRE [N40D], the abundance fitness is 0.072 ± 0.058.
Turning to NMTTNERRVIVPADPTLWSTDHVRQWLEWAVKEYGLPDVAILLFQNIDGKELCKMTKDDFQRLTPSYNADILLSHLHYLRE [N40A], the abundance fitness was -0.201 ± 0.05.
In the case of NMTTNERRVIVPADPTLWSTDHVRQWLEWAVKEYGLPDVFILLFQNIDGKELCKMTKDDFQRLTPSYNADILLSHLHYLRE [N40F] it was -0.419 ± 0.1; in that of NMTTNERRVIVPADPTLWSTDHVRQWLEWAVKEYGLPFVNILLFQNIDGKELCKMTKDDFQRLTPSYNADILLSHLHYLRE [D38F], -0.541 ± 0.17; in that of NMTTNERRVIVPADPTLWSTDHVRQWLEWAVKEYGLPLVNILLFQNIDGKELCKMTKDDFQRLTPSYNADILLSHLHYLRE [D38L], -0.756 ± 0.083.
For the variant NMTTNERRVIVPADPTLWSTDHVRQWLEWAVKEYGLPHVNILLFQNIDGKELCKMTKDDFQRLTPSYNADILLSHLHYLRE [D38H], the abundance fitness is -0.049 ± 0.092.
As for NMTTNERRVIVPADPTLWSTDHVRQWLEWAVKEYGLPWVNILLFQNIDGKELCKMTKDDFQRLTPSYNADILLSHLHYLRE [D38W], the figure is -0.398 ± 0.056.
NMTTNERRVIVPADPTLWSTDHVRQWLEWAVKEYGLPNVNILLFQNIDGKELCKMTKDDFQRLTPSYNADILLSHLHYLRE [D38N]: the abundance fitness is -0.011 ± 0.076.
As for NMTTNERRVIVPADPTLWSTDHVRQWLEWAVKEYGLPVVNILLFQNIDGKELCKMTKDDFQRLTPSYNADILLSHLHYLRE [D38V], the figure is -0.755 ± 0.078.
As for NMTTNERRVIVPADPTLWSTDHVRQWLEWAVKEYGLPKVNILLFQNIDGKELCKMTKDDFQRLTPSYNADILLSHLHYLRE [D38K], the figure is -0.091 ± 0.056.
Consider NMTTNERRVIVPADPTLWSTDHVRQWLEWAVKEYGLPMVNILLFQNIDGKELCKMTKDDFQRLTPSYNADILLSHLHYLRE [D38M], for which the abundance fitness was -0.317 ± 0.067.
With NMTTNERRVIVPADPTLWSTDHVRQWLEWAVKEYGLPQVNILLFQNIDGKELCKMTKDDFQRLTPSYNADILLSHLHYLRE [D38Q], the abundance fitness is -0.067 ± 0.05.
For the variant NMTTNERRVIVPADPTLWSTDHVRQWLEWAVKEYGLPCVNILLFQNIDGKELCKMTKDDFQRLTPSYNADILLSHLHYLRE [D38C], the abundance fitness was -0.289 ± 0.085.
As for NMTTNERRVIVPADPTLWSTDHVRQWLEWAVKEYGLPTVNILLFQNIDGKELCKMTKDDFQRLTPSYNADILLSHLHYLRE [D38T], the figure is -0.052 ± 0.05; as for NMTTNERRVIVPADPTLWSTDHVRQWLEWAVKEYGLPSVNILLFQNIDGKELCKMTKDDFQRLTPSYNADILLSHLHYLRE [D38S], -0.054 ± 0.043; as for NMTTNERRVIVPADPTLWSTDHVRQWLEWAVKEYGLPYVNILLFQNIDGKELCKMTKDDFQRLTPSYNADILLSHLHYLRE [D38Y], -0.293 ± 0.088.
For the variant NMTTNERRVIVPADPTLWSTDHVRQWLEWAVKEYGLPAVNILLFQNIDGKELCKMTKDDFQRLTPSYNADILLSHLHYLRE [D38A], the abundance fitness was -0.217 ± 0.041.
In the case of NMTTNERRVIVPADPTLWSTDHVRQWLEWAVKEYGLPEVNILLFQNIDGKELCKMTKDDFQRLTPSYNADILLSHLHYLRE [D38E] it was -0.094 ± 0.045; in that of NMTTNERRVIVPADPTLWSTDHVRQWLEWAVKEYGLPPVNILLFQNIDGKELCKMTKDDFQRLTPSYNADILLSHLHYLRE [D38P], 0.046 ± 0.054.
In the case of NMTTNERRVIVPADPTLWSTDHVRQWLEWAVKEYGLPGVNILLFQNIDGKELCKMTKDDFQRLTPSYNADILLSHLHYLRE [D38G], the abundance fitness is -0.004 ± 0.031.
Take NMTTNERRVIVPADPTLWSTDHVRQWLEWAVKEYGLPRVNILLFQNIDGKELCKMTKDDFQRLTPSYNADILLSHLHYLRE [D38R]: the abundance fitness was -0.146 ± 0.036.
As for NMTTNERRVIVPADPTLWSTDHVRQWLEWAVKEYGLADVNILLFQNIDGKELCKMTKDDFQRLTPSYNADILLSHLHYLRE [P37A], the figure is 0.022 ± 0.048; as for NMTTNERRVIVPADPTLWSTDHVRQWLEWAVKEYGLFDVNILLFQNIDGKELCKMTKDDFQRLTPSYNADILLSHLHYLRE [P37F], -0.143 ± 0.049; as for NMTTNERRVIVPADPTLWSTDHVRQWLEWAVKEYGLDDVNILLFQNIDGKELCKMTKDDFQRLTPSYNADILLSHLHYLRE [P37D], -0.027 ± 0.069.
As for NMTTNERRVIVPADPTLWSTDHVRQWLEWAVKEYGLQDVNILLFQNIDGKELCKMTKDDFQRLTPSYNADILLSHLHYLRE [P37Q], the figure is -0.044 ± 0.055; as for NMTTNERRVIVPADPTLWSTDHVRQWLEWAVKEYGLWDVNILLFQNIDGKELCKMTKDDFQRLTPSYNADILLSHLHYLRE [P37W], -0.123 ± 0.061.
As for NMTTNERRVIVPADPTLWSTDHVRQWLEWAVKEYGLYDVNILLFQNIDGKELCKMTKDDFQRLTPSYNADILLSHLHYLRE [P37Y], the figure is -0.018 ± 0.053.
For the variant NMTTNERRVIVPADPTLWSTDHVRQWLEWAVKEYGLSDVNILLFQNIDGKELCKMTKDDFQRLTPSYNADILLSHLHYLRE [P37S], the abundance fitness was 0.08 ± 0.039.
With NMTTNERRVIVPADPTLWSTDHVRQWLEWAVKEYGLGDVNILLFQNIDGKELCKMTKDDFQRLTPSYNADILLSHLHYLRE [P37G], the abundance fitness was -0.026 ± 0.048.
Consider NMTTNERRVIVPADPTLWSTDHVRQWLEWAVKEYGLLDVNILLFQNIDGKELCKMTKDDFQRLTPSYNADILLSHLHYLRE [P37L], for which the abundance fitness is 0.001 ± 0.036.
In the case of NMTTNERRVIVPADPTLWSTDHVRQWLEWAVKEYGLHDVNILLFQNIDGKELCKMTKDDFQRLTPSYNADILLSHLHYLRE [P37H] it was 0.016 ± 0.054.
As for NMTTNERRVIVPADPTLWSTDHVRQWLEWAVKEYGLMDVNILLFQNIDGKELCKMTKDDFQRLTPSYNADILLSHLHYLRE [P37M], the figure is 0.001 ± 0.049; as for NMTTNERRVIVPADPTLWSTDHVRQWLEWAVKEYGLTDVNILLFQNIDGKELCKMTKDDFQRLTPSYNADILLSHLHYLRE [P37T], 0.072 ± 0.039.
